The results in this text go back to paper PMC5720721, “A thermal after-effect of UV irradiation of muscle glycogen phosphorylase b” (PLoS ONE, 2017).

The series concerns the molecule itself. Kind of series: AUC; sedimentation velocity; native Phb and UV-Phb 0.75 mg/ml; 0.03 M Hepes, pH 6.8, 0.1 M NaCl; 20°C; rotor speed 52000 rpm; growing time (dose) of UV irradiation.

B1: glycogen phosphorylase b from rabbit skeletal muscle (enzyme, UniProt P00489 1-843, looked up)
chain: MSRPLSDQEKRKQISVRGLAGVENVTELKKNFNRHLHFTLVKDRNVATPRDYYFALAHTVRDHLVGRWIRTQQHYYEKDPKRIYYLSLEFYMGRTLQNTMVNLALENACDEATYQLGLDMEELEEIEEDAGLGNGGLGRLAACFLDSMATLGLAAYGYGIRYEFGIFNQKICGGWQMEEADDWLRYGNPWEKARPEFTLPVHFYGRVEHTSQGAKWVDTQVVLAMPYDTPVPGYRNNVVNTMRLWSAKAPNDFNLKDFNVGGYIQAVLDRNLAENISRVLYPNDNFFEGKELRLKQEYFVVAATLQDIIRRFKSSKFGCRDPVRTNFDAFPDKVAIQLNDTHPSLAIPELMRVLVDLERLDWDKAWEVTVKTCAYTNHTVLPEALERWPVHLLETLLPRHLQIIYEINQRFLNRVAAAFPGDVDRLRRMSLVEEGAVKRINMAHLCIAGSHAVNGVARIHSEILKKTIFKDFYELEPHKFQNKTNGITPRRWLVLCNPGLAEIIAERIGEEYISDLDQLRKLLSYVDDEAFIRDVAKVKQENKLKFAAYLEREYKVHINPNSLFDVQVKRIHEYKRQLLNCLHVITLYNRIKKEPNKFVVPRTVMIGGKAAPGYHMAKMIIKLITAIGDVVNHDPVVGDRLRVIFLENYRVSLAEKVIPAADLSEQISTAGTEASGTGNMKFMLNGALTIGTMDGANVEMAEEAGEENFFIFGMRVEDVDRLDQRGYNAQEYYDRIPELRQIIEQLSSGFFSPKQPDLFKDIVNMLMHHDRFKVFADYEEYVKCQERVSALYKNPREWTRMVIRNIATSGKFSSDRTIAQYAREIWGVEPSRQRLPAPDEKIP
notes: glycogen phosphorylase b, muscle form, rabbit skeletal muscle; Mr of the dimer printed as 194800 Da; also called Phb; intact Phb; source: purified from rabbit skeletal muscle
By stoichiometry N is commonly meant the number of molecules, sites or subunits per partner or assembly. Turning to B1, the “stoichiometry N” value was determined as 2.
